# In article PMC8753184:
# B1: mouse glucose-6-phosphatase catalytic subunit 1 (mG6PC1): N96A (protein)
# parent chain: MEEGMNILHDFGIQSTRYLQVNYQDSQDWFILVSVIADLRNAFYVLFPIWFHLKETVGINLLWVAVVGDWFNLVFKWILFGQRPYWWVLDTDYYSNSSVPIIKQFPVTCETGPGSPSGHAMGAAGVYYVMVTSTLAIFRGKKKPTYGFRCLNVILWLGFWAVQLNVCLSRIYLAAHFPHQVVAGVLSGIAVAETFSHIRGIYNASLRKYCLITIFLFGFALGFYLLLKGLGVDLLWTLEKAKRWCERPEWVHLDTTPFASLFKNLGTLLGLGLALNSSMYRKSCKGELSKLLPFRFACIVASLVLLHLFDSLKPPSQVELIFYILSFCKSATVPFASVSLIPYCLARILGQTHKKSL
# Experiment: preparative SEC and analytical FSEC homogeneity
# Conditions: glycan lost; control: mG6PC1-WT
protein,measurement,value
B1,stability_or_folding,no change
